Experimental findings from patent US20240368301A1 (HANGZHOU JIUYUAN GENE ENGINEERING, published 2024) are described below.

Assay [1] concerns the target T1, SIRPα-V1 on 293T-SIRPα-V1 cells (human, UniProt P78324 31-504).
T1 construct: Stably transfected cell line
The assay can be described thus: FACS titration on 293T-SIRPα-V1 cells, goat anti-hIgG-AF488 (panel SIRPα-V1). As to the method:
(§1) 2×10⁵ per well of stable transfer construct cell lines 293T-SIRPα-V1 (SEQ ID NO: 2), CHOZN-SIRPα-V2 (SEQ ID NO: 38), and CHOZN-SIRPα-V8 (SEQ ID NO: 39) in logarithmic phase were dispended in 96-well U-shaped culture plates, […] After washing, the cells were incubated with 0.2 μg of goat anti-hIgG-AF488 for 30 min at 4° C., then resuspended in 50 μL of DPBS/1% FBS and analyzed by flow cytometry with FlowJo V10 and GraphPad Prism6 software.

Assay [2] addresses T2, SIRPα-V2 on CHOZN-SIRPα-V2 cells (Homo sapiens (Human), UniProt P78324 31-504). The assay can be described thus: competition FACS; CHOZN-SIRPα-V2 cells, FITC-labelled CD47 as competitor. As to the method: (§2) After washing, cells were analyzed by FlowJo V10 and GraphPad Prism6 software.
Assay [3] concerns the target T2, SIRPα-V2 on CHOZN-SIRPα-V2 cells. The experiment in a line: FACS titration on CHOZN-SIRPα-V2 cells, goat anti-hIgG Fc-AF488 (panel SIRPα-V2). As for the experimental part:
(§3) After washing, cells were stained with 0.2 μg goat anti-hIgG Fc-AF488 (Jackson ImmunoResearch, Cat #109-546-170) at 4° C. for 30 min. After washing again, cells were resuspended in 50 μL of DPBS/1% FBS and analyzed by FlowJo V10 and GraphPad Prism6 software.

Assay [4] deals with T3, SIRPα V1-his (ACRO, Cat #SIA-H5225) (human, UniProt P78324 31-370).
T3 construct: not shown: His tag
T3 sequence (P78324 31-370 limits assumed): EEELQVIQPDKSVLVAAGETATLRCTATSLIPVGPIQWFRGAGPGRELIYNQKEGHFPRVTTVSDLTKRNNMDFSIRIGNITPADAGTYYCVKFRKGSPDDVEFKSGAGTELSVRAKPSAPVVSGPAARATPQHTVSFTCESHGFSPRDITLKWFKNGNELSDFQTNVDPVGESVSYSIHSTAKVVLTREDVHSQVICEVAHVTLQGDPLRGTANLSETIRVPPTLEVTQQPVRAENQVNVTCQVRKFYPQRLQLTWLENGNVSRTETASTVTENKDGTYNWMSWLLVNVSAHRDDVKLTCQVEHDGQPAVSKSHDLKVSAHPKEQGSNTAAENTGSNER
The assay can be described thus: ELISA.

For assay [5], the target named is T4, SIRPβ-his (Novoprotein, Cat #CS93) (UniProt O00241 30-371, limits assumed). The experiment in a line: ELISA. For orientation: In an ELISA, binding on a coated surface is turned into a signal by an enzyme label.
T4 sequence (O00241 30-371 limits assumed): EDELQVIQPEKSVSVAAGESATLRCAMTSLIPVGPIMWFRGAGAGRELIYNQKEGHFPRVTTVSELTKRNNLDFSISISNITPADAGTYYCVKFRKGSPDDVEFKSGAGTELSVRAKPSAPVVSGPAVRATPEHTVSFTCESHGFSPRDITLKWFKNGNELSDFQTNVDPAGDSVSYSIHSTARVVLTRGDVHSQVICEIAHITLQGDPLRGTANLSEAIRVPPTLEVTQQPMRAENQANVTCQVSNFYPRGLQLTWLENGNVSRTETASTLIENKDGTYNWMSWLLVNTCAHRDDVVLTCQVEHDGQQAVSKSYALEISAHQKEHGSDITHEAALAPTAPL
In assay [6] the target is T3, SIRPα V1-his (ACRO, Cat #SIA-H5225). The experiment in a line: SPR (Biacore), antibody captured by anti-Fc on CM5, 50 nM SIRPα V1-his injected, 1:1 model. As to the method:
(§4) Using the Biacore analysis system, activators were prepared by mixing 400 mM EDC and 100 mM NHS and activated with a CM5 sensor chip at a flow rate of 10 μL/min for 420 s. Anti-Fc antibody at 30 μg/mL dissolved in 10 mM NaAc (pH 4.5) was injected into the channel at a flow rate of 10 μL/min and then closed with 1 M ethanolamine-HCl at a flow rate of 10 μL/min for 420 s. […] All experimental data were fitted using a 1:1 binding model.

The target is the same in assay [7]. The experiment in a line: competition ELISA; coated SIRPα-V1-his, biotin-CD47 as competitor. As for the experimental part:
100 μL of 2.5 μg/mL of recombinant SIRPα-V1-his and SIRPα-V2-his were coated overnight at 4° C. in Maxisorp ELISA 96-well plates. […] […] VSWFSP (SEQ ID NO: 40)] and incubated in the microtiter plate for 1 h at 37° C. After washing, each well was added with Streptavdin-HRP (Thermo, Cat #434323), substrate TMB (Beyotime, Cat #P0209-100 mL), and read by an enzyme marker.

For assay [8], the target named is T1, SIRPα-V1 on 293T-SIRPα-V1 cells. The experiment in a line: competition FACS; 293T-SIRPα-V1 cells, FITC-labelled CD47 as competitor. As to the method: as §2
Assay [9] has as its target T5, cynomolgus macaques SIRPα-his (ACRO, Cat #SIA-C52H7) (cynomolgus macaque, UniProt A0A2K5VYQ9 31-369).
T5 construct: also called Monkey SIRPα; cynomolgus macaque SIRPα
T5 sequence: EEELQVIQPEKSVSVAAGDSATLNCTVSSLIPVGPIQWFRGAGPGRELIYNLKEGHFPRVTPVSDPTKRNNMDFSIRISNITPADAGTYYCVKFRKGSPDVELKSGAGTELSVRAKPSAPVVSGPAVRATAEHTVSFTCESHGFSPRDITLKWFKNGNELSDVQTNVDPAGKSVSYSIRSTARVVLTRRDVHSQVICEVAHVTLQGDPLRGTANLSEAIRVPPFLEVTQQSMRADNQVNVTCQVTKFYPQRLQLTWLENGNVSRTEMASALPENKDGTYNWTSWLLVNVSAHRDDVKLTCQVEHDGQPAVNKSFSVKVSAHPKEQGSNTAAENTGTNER
The experiment in a line: BLI (Octet RED 96), His-tagged antigen on Ni-NTA sensor, antibody in solution. As to the method:
(§5) SIRPα V1-his (ACRO, Cat #SIA-H5225), SIRPα V2-his (made by transient transfection of HEK293F cells according to SEQ ID NO:38 sequence), SIRPβ-his (Novoprotein, Cat #CS93), SIRPγ-his (Sino Biological, Cat #11828-H08H) or cynomolgus macaques SIRPα-his (ACRO, Cat #SIA-C52H7) at 5 μg/mL was loaded to a Ni-NTA biosensor for 600 s. […] The data were fitted to calculate the affinity.
(BLI is a label-free optical method that tracks binding on a fibre tip over time.)

The target of assay [10] is T3, SIRPα V1-his (ACRO, Cat #SIA-H5225). The assay is described as above. As for the experimental part: as §5
The target of assay [11] is SIRPγ-his (Sino Biological, Cat #11828-H08H) (UniProt Q9P1W8 29-360). Described as above. As to the method:
as §5

Assay [12] addresses T4, SIRPβ-his (Novoprotein, Cat #CS93). The description is as above. As to the method: as §5
Assay [13] addresses T6, SIRPα-V8 on stably transfected cells (Homo sapiens (Human), UniProt P78324 31-504).
T6 construct: also called CHOZN-SIRPα-V8; 293T-SIRPα-V8
The experiment in a line: FACS on cells carrying the target. As to the method:
as §3

Assay [14] has as its target T2, SIRPα-V2 on CHOZN-SIRPα-V2 cells. The assay can be described thus: FACS on cells carrying the target. As for the experimental part:
as §3

For assay [15], the target named is T1, SIRPα-V1 on 293T-SIRPα-V1 cells. The experiment in a line: FACS on cells carrying the target. As for the experimental part: as §3
Assay [16] concerns the target T6, SIRPα-V8 on stably transfected cells. The assay can be described thus: FACS titration on CHOZN-SIRPα-V8 cells, goat anti-hIgG-AF488 (panel SIRPα-V8). As to the method: as §1
Assay [17] concerns the target T3, SIRPα V1-his (ACRO, Cat #SIA-H5225). The assay can be described thus: SPR (Biacore), antibody captured by anti-Fc on CM5, 50 nM SIRPα V1-his injected. As to the method: as §4
On the technique in general: In SPR one partner is held on a chip, and binding of the other changes the refractive index at the surface.

T1 sequence (P78324 31-504): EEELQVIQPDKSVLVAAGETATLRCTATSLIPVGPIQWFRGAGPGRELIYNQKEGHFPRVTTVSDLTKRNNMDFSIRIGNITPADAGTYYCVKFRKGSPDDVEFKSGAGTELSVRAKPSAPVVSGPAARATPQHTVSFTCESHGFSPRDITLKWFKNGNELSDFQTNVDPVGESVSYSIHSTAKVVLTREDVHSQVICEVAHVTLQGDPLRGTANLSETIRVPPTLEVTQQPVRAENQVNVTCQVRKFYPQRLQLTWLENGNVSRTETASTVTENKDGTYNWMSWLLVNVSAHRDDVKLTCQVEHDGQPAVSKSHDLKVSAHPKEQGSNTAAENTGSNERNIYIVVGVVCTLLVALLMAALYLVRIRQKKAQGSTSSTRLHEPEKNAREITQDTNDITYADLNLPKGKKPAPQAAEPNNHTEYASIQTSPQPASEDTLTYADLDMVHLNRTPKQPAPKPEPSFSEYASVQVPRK
T2 sequence (P78324 other isoform, or with tags, fused parts or gaps limits assumed): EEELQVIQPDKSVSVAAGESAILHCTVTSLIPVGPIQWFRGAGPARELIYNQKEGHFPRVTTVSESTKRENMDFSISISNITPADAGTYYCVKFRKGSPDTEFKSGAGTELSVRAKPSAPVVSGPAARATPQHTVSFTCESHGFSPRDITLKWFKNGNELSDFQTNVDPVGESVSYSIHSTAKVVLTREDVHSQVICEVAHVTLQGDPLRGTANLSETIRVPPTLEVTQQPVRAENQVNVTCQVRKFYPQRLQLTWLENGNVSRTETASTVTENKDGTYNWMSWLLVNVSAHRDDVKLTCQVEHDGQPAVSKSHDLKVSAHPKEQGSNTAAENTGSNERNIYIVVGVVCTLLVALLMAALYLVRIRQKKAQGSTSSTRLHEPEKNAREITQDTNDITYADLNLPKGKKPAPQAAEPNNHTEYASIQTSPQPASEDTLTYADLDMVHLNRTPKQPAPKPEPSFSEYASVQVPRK
Chain of SIRPγ-his (Sino Biological, Cat #11828-H08H) (Q9P1W8 29-360 limits assumed): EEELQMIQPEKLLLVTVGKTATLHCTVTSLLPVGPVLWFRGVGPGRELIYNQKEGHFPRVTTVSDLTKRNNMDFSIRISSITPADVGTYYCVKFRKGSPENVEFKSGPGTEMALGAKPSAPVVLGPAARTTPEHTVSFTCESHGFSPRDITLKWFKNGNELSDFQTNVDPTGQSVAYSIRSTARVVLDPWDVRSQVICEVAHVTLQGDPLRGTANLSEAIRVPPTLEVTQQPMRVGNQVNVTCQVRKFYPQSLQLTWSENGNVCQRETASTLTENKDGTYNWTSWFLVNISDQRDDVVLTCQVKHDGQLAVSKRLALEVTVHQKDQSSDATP
T6 sequence (P78324 other isoform, or with tags, fused parts or gaps limits assumed): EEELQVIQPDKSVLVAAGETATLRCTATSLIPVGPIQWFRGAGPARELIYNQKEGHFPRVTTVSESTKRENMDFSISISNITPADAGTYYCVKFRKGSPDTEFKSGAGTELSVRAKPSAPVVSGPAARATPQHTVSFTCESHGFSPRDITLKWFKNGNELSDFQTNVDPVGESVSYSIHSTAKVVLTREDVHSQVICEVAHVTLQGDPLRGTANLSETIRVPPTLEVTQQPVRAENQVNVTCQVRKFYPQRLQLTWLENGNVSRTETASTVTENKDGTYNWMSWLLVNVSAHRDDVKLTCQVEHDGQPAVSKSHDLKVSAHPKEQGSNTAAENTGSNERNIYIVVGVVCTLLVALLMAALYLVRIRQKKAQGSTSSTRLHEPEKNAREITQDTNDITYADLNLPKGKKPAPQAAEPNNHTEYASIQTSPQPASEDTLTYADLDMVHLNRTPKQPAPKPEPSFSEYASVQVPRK

B1: AD4-12 (antibody, V domains shown)
VH: EVQLEESGPGLVAPSQSLSITCTVSGFSLTGYGVNWVRQPPGKGLEWLGIIWGDGSTDYNSALKSRLSISKDNSKSQVFLKMNSLQSDDTARYYCARAGKMDYWGQGTSVTVSS
VL: DIVLTQSPASLAVSLGQGATISCRASESVDSYGNSFMHWYQQKPGQPPKPLIYLASNLESGVPARFSGSGSRTDFTLTIDPVEADDAATYYCQQNNEYPWTFGGGTKLEIK
notes: Mouse variable domains joined to human kappa and human IgG1 constant regions (wild type = AD4-12-G1, L234A/L235A = AD4-12-G1lala); also called AD4-12-G1; AD4-12-G1lala
As usually defined, the EC50 (read off the curve) is the concentration at which the effect is half-maximal. For orientation: IC50 means the concentration at which inhibition is half-maximal. High values mean weaker potency in that assay, low ones greater potency in that assay. Usually EC50 stands for the concentration that produces a half-maximal response. Broadly, the Kd is the concentration at which binding is half-saturated. For orientation: koff means the first-order rate constant of dissociation. Low values mean a long-lived complex, high ones a short-lived complex. The kon is the second-order rate constant of association. A lower kon goes with slow association. As for B1, the “EC50 (read off the curve)” value in assay [1] is ~5 nM; in assay [3], ~4 nM; in assay [16] it was ~2 nM. In addition, the half-maximal inhibitory concentration (IC50) in [2] amounted to 6.42 nM; in [7] it was 5.26 nM; in [8], 1.74 nM. The EC50 in [4] amounted to 0.0488 nM; in assay [5] it was 0.271 nM; in assay [13] it was 0.407 nM; in assay [14], 0.245 nM; in assay [15], 0.615 nM. For the same molecule, the dissociation constant Kd in [6] came out at 1.47 nM; in assay [9], 0.43 nM; in assay [10], 0.0111 nM; in assay [11], 1.03 nM; in [12] it was 0.0353 nM. For the same molecule, the dissociation rate constant (koff) in assay [6] was 0.00113 s⁻¹; in [9], 0.000498 s⁻¹; in [10] it was 1.16e-05 s⁻¹; in [11] it was 0.000731 s⁻¹; in assay [12], 3.21e-05 s⁻¹. In addition, the kon in assay [6] was 770000 M⁻¹ s⁻¹; in assay [9] it was 1.16e+06 M⁻¹ s⁻¹; in [10], 1.05e+06 M⁻¹ s⁻¹; in [11] it was 709000 M⁻¹ s⁻¹; in assay [12], 909000 M⁻¹ s⁻¹.

B2: Z2 (antibody, IgG1, V domains shown)
VH: QVQLQESGPGLVKPSQTLSLTCTVSGFSLTGYGVNWIRQPPGKGLEWIGIIWGDGSTDYNSALKSRVTISVDTSKNQVFLKLSSVTAADTAVYYCARAGKMDYWGQGTTVTVSS
VL: DIVLTQSPASLAVSPGQRATITCRASESVDSYGNSFMHWYQQKPGQPPKLLIYLASNLESGVPARFSGSGSRTDFTLTINPVEANDAANYYCQQNNEYPWTFGGGTKVEIK
notes: also called humanized variant Z2
On to B2, for which, in [17], the binding result is listed as “binds”.
